The data set is described as follows: protein stability index of a GFP-peptide fusion (GPS, HEK-293T) (PSI 1-6); higher = more stable.
[1] abbreviates: treatment: DMSO, c terminus: a fixed tail appended.
The mark [2] stands for this setting: treatment: MLN4924 1 uM, 8 h, c terminus: a fixed tail appended.
Setting [3] is: treatment: DMSO, c terminus: native.
[4] abbreviates: treatment: MLN4924 1 uM, 8 h, c terminus: native.

± gives the standard deviation.
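Also: 24-mer peptide tiles fused after GFP, lentivirally expressed, FACS-sorted into six equal bins by GFP/DsRed ratio, decoded by Illumina sequencing, PSI is the read-weighted mean bin number.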

For RAPSRRHGVRAKVQPQARKKEMEM [CPN1], the protein stability index stood at 4.39 ± 0.26 under setting [1] and 4.64 ± 0.082 under setting [2]. The like results for RAYQYTTLTSVQLLDCFGIPVLMA [SLC35F2] were, in that order, 3.13 ± 0.64 and 2.66 ± 0.85. For RCGVGVSVLDDLLYAVGGHDGSSY [KLHL20], in that order: 2.36 ± 0.38 and 2.13 ± 0.42. The like results for RCVKSIIRQVLQGLDYLHSKCKII [SRPK2] were, in that order, 2.73 ± 0.88 and 2.79 ± 0.59. Regarding REMSKTFIIGELHPDDRPKLNKPP [CYB5A], the protein stability index is, setting by setting: under setting [1], 3.95 ± 0.23; under setting [2], 4.05 ± 0.28.

RENEELSARYLSQCQEAEQARAEL [FBF1] came in with a protein stability index under setting [1] of 5.38 ± 0.16 and a protein stability index under setting [2] of 5.34 ± 0.09. For RENILVSLGAVGEGFHNYHHSFPY [SCD], in that order: 2.22 ± 0.13 and 2.11 ± 0.14. The like results for REPDWGDGDAPGSLLPAQVAACAQ [CEBPD] were, in that order, 5.04 ± 0.28 and 4.99 ± 0.47. In the case of RFAWPKVLKISYKRNNFYIKIRPG [EPB41L3], the protein stability index reads like this: under setting [1], 2.89 ± 0.63; under setting [2], 2.2 ± 0.82.

For the sequence RFYFENLLAKNSKPIHTTILNPHV [CAMK2B], the protein stability index by setting is: under setting [1], 2.2 ± 0.11; under setting [2], 2.23 ± 0.23. For RGCLHSHGLQEGKDLFTQRQNSAP [CDC25A], in that order: 3.72 ± 0.36 and 3.62 ± 0.33. The like results for RGEQTTSQVSWEQDLKLFLQEPGV [FCHSD1] were, in that order, 4.01 ± 0.27 and 4.06 ± 0.43.

As for RGFSGGILAFLVLEAVAGALVVAL [TSPAN10], the protein stability index reads like this: under setting [1], 2.78 ± 0.9; under setting [2], 2.43 ± 0.41. The like results for RGGDGEVASAPLQPPVPSLSEVKP [TRADD] were, in that order, 5.34 ± 0.36 and 5.04 ± 0.58. RGLIPVKRGPSSRSGGPPPKKSAP [RBMY1A1]: the protein stability index is, setting by setting: under setting [1], 4.3 ± 0.58; under setting [2], 4.73 ± 0.28. For RIDGKLDSPSRSPSKVEVTEKTTT [C2CD2L], in that order: 5.42 ± 0.21 and 5.46 ± 0.11. For the sequence RKPDPMCVFTYVQSLYNHLRRFE [SMTNL2], the protein stability index under setting [3] was found to be 2.74 ± 0.62 and the protein stability index under setting [4] was 2.72 ± 0.36.

Turning to RKPDYTAYVAMIPQCIKEEDTPSD [ATF4], the protein stability index runs as follows: under setting [1], 4.47 ± 0.25; under setting [2], 4.62 ± 0.21.

For RKSSFAFYQAVRDLLPVWLLEDMR [ANKRD9], the protein stability index runs as follows: under setting [1], 3.03 ± 0.99; under setting [2], 2.21 ± 0.38. For RLAELEAQVRKLELERAQHELLLG [FBF1], in that order: 2.97 ± 0.22 and 2.87 ± 0.14. Regarding RLASFDSSGKLICSRTTGYQILTL [GMCL1], the protein stability index by setting is: under setting [1], 2.63 ± 0.93; under setting [2], 2.55 ± 0.19. As for RLEELTNRLASLQQENKVLKIELE [CCDC6], the protein stability index came to 3.65 ± 0.23 under setting [1] and 3.78 ± 0.38 under setting [2]. With RLICDFPFDGLLEERALLLGRMGK [VPS39], the protein stability index is 2.28 ± 0.25 under setting [1] and 2.28 ± 0.12 under setting [2]. For the sequence RLINHSKCGNCQTKLHDIDGVPHL [KMT5A], the protein stability index worked out at 2.67 ± 0.45 under setting [1] and 2.64 ± 0.36 under setting [2]. For RLKKVENIKIWLSLRSYLKRRGPQ [PHTF1], in that order: 2 ± 0.65 and 2.25 ± 0.64. For RLLSVPELCHHVAEVWVSGTIFIR [RETREG3], in that order: 2.96 ± 0.4 and 2.69 ± 0.53. Consider RLMSFRPICSANHKESKMTIFEKE [CRYBA1], for which the protein stability index was found to be 3.14 ± 0.16 under setting [1] and 3.5 ± 0.21 under setting [2]. The like results for RLRQLKVRNDSCVVHEDFREDILS [PKD2L1] were, in that order, 3.47 ± 0.43 and 3.65 ± 0.43. For RLSNNQRYLFLDGDSHYEIEIVHI [ZFYVE21], in that order: 3.21 ± 0.56 and 2.21 ± 0.53. As for RLVQLLVRAHQDTQRRTSMGGTQQ [CTNNB1], the protein stability index by setting is: under setting [1], 2.23 ± 0.25; under setting [2], 2.54 ± 0.54. The like results for RMLQREGCFRSQGASLRLAVEDGL [M1AP] were, in that order, 3.1 ± 0.22 and 2.94 ± 0.14. Regarding RMQALLIRERILGPSHPDTSYYIR [FEM1C], the protein stability index runs as follows: under setting [1], 2.2 ± 0.17; under setting [2], 2.18 ± 0.44. The like results for RMYCSDLLNPNLKDTVICAMKITQ [SPACA3] were, in that order, 2.15 ± 0.42 and 2.05 ± 0.17.

Take RNTPIEALCENFPEEMATYLRYVR [CSNK1G1]: the protein stability index under setting [1] is 2.84 ± 0.26 and the protein stability index under setting [2] was 2.9 ± 0.56. The like results for RNTSWGVVQEPPGRASRFLQSISW [TLE6] were, in that order, 2.47 ± 0.28 and 2.46 ± 0.3. For RNVTGTPLTGDKDDEEVDTHFASQ [ADAMTSL2], in that order: 5.5 ± 0.22 and 5.32 ± 0.27.

With RPEELLQMELLLVNKLKWNLAAMT [CCND1], the protein stability index reads like this: under setting [1], 2.68 ± 0.71; under setting [2], 2.52 ± 0.66. For RPLARPIKPNEILPPEKGREVAKE [RHOBTB2], in that order: 4.91 ± 0.16 and 4.68 ± 0.66. The like results for RPMSEPGAGAGSSLLDVAEPGGPG [SMAD6] were, in that order, 5.11 ± 0.3 and 5.39 ± 0.16. The like results for RQDPRPHGPQLPTGIEGNWGRLLE [ZBED2] were, in that order, 3.68 ± 0.2 and 3.54 ± 0.32. With RQEYQKALQEYSSISEKLSSTNFA [C8orf76], the protein stability index is, setting by setting: under setting [1], 3.48 ± 0.26; under setting [2], 3.69 ± 0.18. For RQIVSGLKYLHEQEILHRDLKLGN [PLK2], in that order: 2.52 ± 0.21 and 2.7 ± 0.48. The like results for RQKREAAARKKYNLLQDSSTSDSD [C18orf25] were, in that order, 5.17 ± 0.25 and 5.18 ± 0.15. The like results for RQMHLARFLRMLLRLADEFGVAVV [RAD51] were, in that order, 2.55 ± 0.41 and 2.68 ± 0.28. Take RQRCMPEEDLQSQSETQGLEGAQA [MAGEA10]: the protein stability index runs as follows: under setting [1], 5.44 ± 0.28; under setting [2], 5.44 ± 0.082. RREAVQRGRMPPTQPTHGQFALTN [NR2F2] displayed a protein stability index under setting [1] of 3.9 ± 0.29 and a protein stability index under setting [2] of 3.99 ± 0.25. The like results for RRERNNIAVRKSRDKAKMRNLETQ [CEBPB] were, in that order, 4.28 ± 0.18 and 4.5 ± 0.19. The like results for RRMAESLRIPEGPIDQGPAIGRVR [FUT8] were, in that order, 4.22 ± 0.17 and 4.43 ± 0.18. The like results for RRTAENKLDTKYPYVCHAELNAIM [DCTD] were, in that order, 2.29 ± 0.15 and 2.37 ± 0.49.

Regarding RRVWSPPRVHKVEMGFGGGGGAN [ZBTB22], the protein stability index under setting [3] turned out to be 4.13 ± 0.3 and the protein stability index under setting [4] worked out at 3.92 ± 0.14.

In the case of RSAMSGASQPRGPALLFPATRGVP [TRIB1], the protein stability index turned out to be 3.554 ± 0.019 under setting [1] and 4.14 ± 0.29 under setting [2]. Under setting [1], RSCGGGVTSQERHCLQQRRKSVPG [ADAMTSL2] displayed a protein stability index of 4.58 ± 0.25. Turning to RSKESKDCSGLVLLCLFFGIPWEA [PCDHGA10], the protein stability index is, setting by setting: under setting [1], 3.15 ± 0.37; under setting [2], 2.48 ± 0.61. The like results for RSRSLDIQPSSEGLGPTSEPFPSS [SPAG8] were, in that order, 5.46 ± 0.23 and 5.52 ± 0.094. In the case of RSSEFYRVTTEQYQKAAEEVEAKF [CHCHD3], the protein stability index came to 4.88 ± 0.32 under setting [1] and 4.78 ± 0.074 under setting [2]. For RTFGPPPSLSPGAFSYSSSSRFSS [PRPH], in that order: 3.42 ± 0.21 and 3.8 ± 0.3. The like results for RTQEEKLEHVRALIKKYSDHLENV [TRIM55] were, in that order, 3.24 ± 0.31 and 3.56 ± 0.27.

Consider RTVAIWDVAEGYRKLSLKGHNDWV [WDR88], for which the protein stability index worked out at 2.46 ± 0.38 under setting [1] and 2.54 ± 0.44 under setting [2]. For RVEESALRALREKLFAHSSDLLSE [PPEF2], in that order: 2.96 ± 0.49 and 3.27 ± 0.32. The like results for RVFRVTFLMLAVSLTVPLLGAMML [APMAP] were, in that order, 2.2 ± 0.43 and 2.4 ± 0.55. For RWLDESDAEMELRAKEEERLNKLR [HACD3], in that order: 4.5 ± 0.3 and 4.84 ± 0.42. In turn, RWPFDHNDFGVFLCKLFPFLQKSS [EDNRA] had a protein stability index under setting [1] of 2.2 ± 0.19 and a protein stability index under setting [2] of 2.05 ± 0.38. The like results for RYAVVLNATWLVNSAAHLFGYRPY [SCD] were, in that order, 2.9 ± 0.65 and 3.05 ± 0.47. The like results for SADRLTVRCGLLGSLGPVPVLRFD [TRIM14] were, in that order, 2.12 ± 0.31 and 2.25 ± 0.31.

For the sequence SAETSGGLLICLPREQAARFCSEI [SEPHS2], the protein stability index is, setting by setting: under setting [1], 2.31 ± 0.27; under setting [2], 2.18 ± 0.26.

As to SAKDGGPQPPDAPQLVSSAREGSS [PLEKHN1], the protein stability index by setting is: under setting [1], 5.49 ± 0.19; under setting [2], 5.39 ± 0.17. For SAKPASLRLLQHTPSARRNYRIAG [C6orf223], in that order: 3.43 ± 0.24 and 3.75 ± 0.22.

Consider SCNTWPSMPSYSSCTVTTVQPMDR [TBX5], for which the protein stability index was found to be 3.11 ± 0.14 under setting [1] and 3.09 ± 0.19 under setting [2]. In the case of SCPFFETSAAYRYYIDDVFHALVR [RIT1], the protein stability index was 2.41 ± 0.36 under setting [1] and 2.54 ± 0.38 under setting [2].

As for SCQSFISWTGDGWEFKLSDPDEVA [ETS1], the protein stability index is 3.12 ± 0.13 under setting [1] and 3.06 ± 0.31 under setting [2]. Regarding SDCCRKLLSSGFEIDTPDKFGRTC [ANKRD44], the protein stability index was 2.8 ± 0.27 under setting [1] and 2.97 ± 0.33 under setting [2]. For the sequence SDHCITSSDMMDSSSFSNLDLSEE [VDR], the protein stability index is, setting by setting: under setting [1], 5.48 ± 0.13; under setting [2], 5.42 ± 0.16.

The values above are taken from the supplement of paper PMC10567573.
